# Measured values as given in doi:10.1101/285569.
# T1: Pumilio RNA-binding domain (UniProt P25822 1091-1426)
# T1 sequence: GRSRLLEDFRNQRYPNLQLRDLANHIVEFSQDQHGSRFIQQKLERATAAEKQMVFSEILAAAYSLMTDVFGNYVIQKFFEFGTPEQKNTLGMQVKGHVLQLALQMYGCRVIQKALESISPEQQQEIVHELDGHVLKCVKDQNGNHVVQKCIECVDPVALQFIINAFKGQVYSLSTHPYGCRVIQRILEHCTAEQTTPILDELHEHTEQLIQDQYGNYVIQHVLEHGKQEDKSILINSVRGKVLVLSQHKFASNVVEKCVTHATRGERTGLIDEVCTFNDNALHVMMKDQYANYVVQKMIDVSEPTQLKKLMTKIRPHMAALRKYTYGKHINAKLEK
# Assays:
# Bruno = Bruno (UniProt O02374 1-604); assay: EMSA
# [1] = molecular target: T1, Pumilio RNA-binding domain; assay: EMSA
binder,measurement,setting,value
UAAUCAAGAUACAUAUAUGC (ssRNA) [Scramble RNA],binding result,Bruno,no binding
same,binding result,[1],no binding
